Source: paper PMC9640981, “Plant vernalization proteins contain unusual PHD superdomains without histone H3 binding activity” (The Journal of Biological Chemistry, 2022)
Entries after “also recorded” stand apart in the source; their conditions may differ.

What was measured:
[1] = test system: ^15N-labeled Pd VIN3_123-326; assay: NMR (BEST-TROSY) interaction of negatively charged polymers with Pd VIN3 PHD superdomain; type: binding, Phoenix dactylifera
Method: (§1) For NMR spectroscopy, A. thaliana VIN3_150-208 and P. dactilyfera VIN3_123-326 were expressed in M9 minimal medium supplemented with 0.4% glucose, antibiotics, trace elements, 25 ml overnight culture, and 2 g of ^15N-H4Cl per liter of expression culture. Cultures were grown and processed essentially as described before. NMR samples containing 50 μM ^15N-labeled VIN3_150-208 or VIN3_123-326 were prepared in aqueous buffer (25 mM Tris pH 8, 150 mM NaCl, and 1 mM DTT). The 50 μM ^15N-labeled VIN3_150-208 or VIN3_123-326 was incubated with 0.5 mM histone H3 peptides resuspended in 25 mM Tris pH 8, 150 mM NaCl, and 1 mM DTT for >30 min before measurement. Spectra were recorded on a Bruker Avance-III spectrometer operating at 600 MHz ^1H frequency and equipped with a 5 mm inverse detection cryogenic probe. BEST-TROSY shift correlation experiments ([45]) were acquired with 256 × 1024 points in t1 and t2, respectively. Spectra were processed in TopSpin version 3.2 (Bruker), with linear prediction in t1, giving a digital resolution of 2.2 and 8.2 Hz/point in the processed data.
Generation of nucleic acid probes for NMR
FLC DNA was used as a template for the design of a dsDNA 60-mer probe, generated by annealing the sequence (5′ […] 3′) and its complementary oligonucleotide for 2 min at 95 °C. […]

VIN3 PHD superdomain = assay: Interaction of negatively charged polymers with VIN3 PHD superdomain (NMR and ITC, summary); type: binding, Phoenix dactylifera; conditions: listed as RNA
Method: ITC was carried out at 25 °C with an iTC 200 Microcalorimeter (GE Healthcare) in 25 mM Tris pH 8, 150 mM NaCl, and 1 mM DTT. Titrations consisted of 19 consecutive 2 μl injections of 0.25 to 1 mM peptide solution (following a preinjection of 0.5 μl) into 50 μM protein (VIN3PHD, VIN3_123-326, VIN3_116-307, OBE1_193-372, or pVP13 VIN3_130-299) at time intervals of 120 s. ITC data were analyzed using MicroCal PEAQ-IT Analysis Software (Malvern Sciences).
as §1, with “Spectra were processed in TopSpin version 3.2 (Bruker), with linear prediction in t1, giving a digital resolution of 2.2 and 8.2 Hz/point in the processed data.” left out

B1: 63-mer RNA: FLC RNA transcript, 5′ GGGAAAGAGAAAACGCUUAGUAUCUCCGGCGACUUGAACCCAAACCUGAGGAUCAAAUUAGGG 3′ (nucleic acid)
chain: GGGAAAGAGAAAACGCUUAGUAUCUCCGGCGACUUGAACCCAAACCUGAGGAUCAAAUUAGGG
modifications: RNA, backbone not given here; further chemistry not fully specified
For B1, which “perturbation of BEST-TROSY spectrum (in words)” value ([1]; 50 μM ^15N-labeled VIN3_123-326, 4 μM 60-mer dsDNA or 63-mer RNA (Fig. 6A, B), ssDNA comparison E. F.-E., unpublished) is on record?
Its value is “produced perturbations of the same individual crosspeaks”.

And the “minimal concentration required to produce spectral perturbations” value ([1]; BEST-TROSY, 50 μM ^15N-labeled VIN3_123-326, 25 mM Tris pH 8, 150 mM NaCl, 1 mM DTT)?
Its value is 2 µM.

What about the “propensity for interaction with negatively charged polymers (in words)” value (VIN3 PHD superdomain) of the same molecule?
The value was “moderate propensity for interacting; also recorded: interact weakly; also recorded: can interact instead with negatively charged polymers”.
